Entries after “also recorded” stand apart in the source; their conditions may differ.
Tests used:
[1] = tested on: Factor Xa; test: Factor Xa activity in plasma with heparin / LMWH (anti-Xa activity); format: biochemical, human; settings: for Reversal of Factor Xa inhibitory effect of heparin: peptide, dose dependent, complete at 1 mg/ml, FIG. 6; for Reversal of heparin anti-Xa activity: increasing doses of heparanase proenzyme, in the presence of AT
Description: Heparin inhibits the activity of activated coagulation factor X (Xa). […] Abbreviations: act. (activity), plas. (plasma).
(§1) Coagulation Assays • aPTT-Automatic determination of activated partial thromboplastin time (aPTT) of samples was performed in duplicates, by mixing pooled normal plasma with aPTT reagent (FSL actin, Dade Behring). After exactly 10 min, the clotting time was determined on Sysmex CA1500 analyzer. • Xa activity—Photometric determination of anti-Xa activity was performed to evaluate the activity of LMWH in human plasma on Sysmex CA1500 analyzer, using the LMWH Kit (Chromogenics). • PT—Prothrombin time (PT) was determined using the Innovin reagent (Dade Behring) on Sysmex CA1500 analyzer. • Protein C—Protein C activity was determined by the Berichrom Protein C kit, and ATIII was measured by the chromogenic Berichrom Antithrombin III kit (both from Dade Behring). • Platelet aggregation—Platelet aggregation was measured on normal donor platelets utilizing the Payton Aggregocorder type aggregometer (Payton Associates). • Protein S—Free Protein S was measured with the Liatest kit (Diagnostica Stago). All coagulation assays were subjected to external quality control program (NEQUAS, Sheffield, UK).
In recent years LMWH became widely used anti-coagulants due to their prominent anti-coagulant activity, and improved pharmacokinetics compared with un-fractionated heparin. However, there is still no existing anti-dot to inhibit these clinically highly abundant anti-coagulants, in the case of urgent clinical needs. Such needs may occur during extensive bleedings (e.g. brain) caused by LMWH overdose, or un-controlled bleedings in LMWH treated individuals due to other medical causes. Therefore, the effects of heparanase pro-enzyme on the anti-coagulant activities of heparinoids, was next tested by the inventors. […] Similar effects of heparanase were observed on plasma treated with unfractionated heparin (not shown).

[2] = target: T1, heparanase (Homo sapiens, UniProt Q9Y251); settings: previously shown, WO 2005/071070; cited from earlier work
T1 sequence (Q9Y251 158-543 limits assumed): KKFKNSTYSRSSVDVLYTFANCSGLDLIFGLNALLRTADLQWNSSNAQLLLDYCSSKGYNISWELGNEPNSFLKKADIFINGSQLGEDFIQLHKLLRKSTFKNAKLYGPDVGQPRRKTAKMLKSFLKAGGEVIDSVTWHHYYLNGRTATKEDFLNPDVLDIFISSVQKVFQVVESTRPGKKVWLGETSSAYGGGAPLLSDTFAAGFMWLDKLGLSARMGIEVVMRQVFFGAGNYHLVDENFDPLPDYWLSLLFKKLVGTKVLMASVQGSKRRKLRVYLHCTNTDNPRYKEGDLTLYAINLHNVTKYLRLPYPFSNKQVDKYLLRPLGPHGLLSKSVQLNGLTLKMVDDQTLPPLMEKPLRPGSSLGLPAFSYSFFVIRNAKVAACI

[3] = tested on: heparin anti-coagulant effects on the aPTT response; test: aPTT assay in normal plasma with heparin; format: biochemical
Description: In the aPTT assay, clot is generated within normal plasma by the intrinsic coagulation pathway. […] Abbreviations: cont. (control), N. coag. (No coagulation).
as §1
The extent of blood coagulation responses requires the balance by anticoagulant components in the microenvironment of the endothelium, represented by cell surface HSPG and associated coagulation inhibitors. Heparanase, which is released from platelets upon activation may function as a physiological procoagulant. […] Two coagulation assays are affected by heparinoids: activated partial thromboplastin time (aPTT) which measures the intrinsic coagulation pathway, and thrombin time (TT) which measures the thrombin-mediated conversion of fibrinogen to fibrin. As illustrated by FIG. 1, in both cases, heparin forms a ternary complex with the natural thrombin inhibitor antithrombin III (ATIII) and thrombin, resulting in thrombin inactivation. […]

[4] = tested on: heparin anti-coagulant effects on thrombin activity; test: Thrombin time assay (TTA) in normal plasma with heparin; format: biochemical; settings: FIG. 3
From the text: In the thrombin time assay (TTA), clot is generated within normal plasma. […] Abbreviations: cont. (control), sec. (seconds), N. coag. (No coagulation).
The extent of blood coagulation responses requires the balance by anticoagulant components in the microenvironment of the endothelium, represented by cell surface HSPG and associated coagulation inhibitors. Heparanase, which is released from platelets upon activation may function as a physiological procoagulant. […] Two coagulation assays are affected by heparinoids: activated partial thromboplastin time (aPTT) which measures the intrinsic coagulation pathway, and thrombin time (TT) which measures the thrombin-mediated conversion of fibrinogen to fibrin. As illustrated by FIG. 1, in both cases, heparin forms a ternary complex with the natural thrombin inhibitor antithrombin III (ATIII) and thrombin, resulting in thrombin inactivation. […] The inventors therefore next examined the effect of heparanase on the heparin induced reduction of both, aPTT and TT responses.

[5] = tested on: extrinsic coagulation pathway; test: Prothrombin time (PT); format: biochemical; settings: for Effect on PT response: not shown
Description: as §1
(§2) To examine the possible involvement of heparanase in the coagulation process, variety of coagulation tests including activated […] (aPTT, testing the intrinsic coagulation pathway), prothrombin time (PT, testing the extrinsic coagulation pathway), thrombin time (TT, testing thrombin mediated fibrin generation), as well as protein C and protein S (both coagulation inhibitors) were performed by the inventors.

[6] = tested on: thrombin mediated fibrin generation; test: Thrombin time (TT), direct effect; format: biochemical; settings: Heparanase 10 μg/ml; normal range 14-21 sec
From the text: Another test may be the Thrombin Time (TT) assay which reflects the time taken for a plasma sample to clot on addition of thrombin. The test is essentially a measure of fibrinogen to fibrin conversion and the factors affecting this terminal stage of the coagulation system.
as §2

[7] = target: T2, Protein S (Homo sapiens, UniProt P07225); test: Protein S activity (Liatest kit); format: biochemical; settings: Heparanase 10 μg/ml; normal range 54-138%
T2 construct: from tissue; host or cells: normal plasma
T2 sequence (P07225 42-676): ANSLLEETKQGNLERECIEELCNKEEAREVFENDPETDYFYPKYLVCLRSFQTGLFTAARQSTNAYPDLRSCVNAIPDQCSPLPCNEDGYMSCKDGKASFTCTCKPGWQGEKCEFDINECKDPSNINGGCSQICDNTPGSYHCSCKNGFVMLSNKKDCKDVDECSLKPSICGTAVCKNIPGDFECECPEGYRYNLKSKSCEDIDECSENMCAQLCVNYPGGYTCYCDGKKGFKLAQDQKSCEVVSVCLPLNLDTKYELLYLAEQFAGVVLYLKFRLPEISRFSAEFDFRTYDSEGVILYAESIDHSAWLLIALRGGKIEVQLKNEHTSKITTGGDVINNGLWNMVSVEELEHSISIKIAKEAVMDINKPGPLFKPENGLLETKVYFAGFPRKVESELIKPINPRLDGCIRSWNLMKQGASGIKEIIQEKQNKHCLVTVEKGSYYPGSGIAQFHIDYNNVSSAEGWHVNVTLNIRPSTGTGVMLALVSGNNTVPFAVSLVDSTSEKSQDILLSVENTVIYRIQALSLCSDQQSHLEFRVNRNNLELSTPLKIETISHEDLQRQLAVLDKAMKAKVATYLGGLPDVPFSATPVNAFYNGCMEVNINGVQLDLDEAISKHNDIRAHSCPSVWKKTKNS
Description: as §1

[8] = tested on: intrinsic coagulation pathway; test: Activated partial thromboplastin time (aPTT), direct effect; format: biochemical; settings: Heparanase 10 μg/ml; normal range 25-34 sec
Description: as §1, with “UK). […]” for “UK).”

[9] = target: T3, Factor Xa (Bos taurus, UniProt P00743); test: Factor Xa activity, direct effect; format: biochemical, human; settings: Heparanase 10 μg/ml, no heparinoid, normal value 100%
T3 construct: purchased Chromogenics
Description: as §1

[10] = target: T4, Antithrombin III (Homo sapiens, UniProt P01008); test: Antithrombin III (chromogenic Berichrom Antithrombin III kit); format: biochemical; settings: Heparanase 10 μg/ml; normal range 74-114%
T4 construct: from tissue; host or cells: normal plasma
Description: as §1

[11] = tested on: normal donor platelets; test: Platelet aggregation stimulated by mediators (ADP, collagen, thrombin); format: cell-based; settings: Heparanase 10 μg/ml
Description: as §1
The effects of heparanase on platelet aggregation stimulated by a variety of mediators (e.g. ADP, collagen, thrombin), was next tested.

[12] = tested on: Factor Xa; test: Factor Xa activity ex vivo in plasma of LMWH-treated patients; format: biochemical, human; settings: for Factor Xa activity in LMWH-treated patient plasma: plasma of twelve LMWH-treated patients, measured within 5 min, recombinant pro-heparanase, FIG. 5A
Description: FIG. 5A. Heparanase pro-enzyme was added to plasma derived from twelve independent LMWH-treated patients. Factor Xa activity was then measured, within 5 min. Each sample was measured in the absence (open bars) or presence (filled bars) of […] recombinant pro-heparanase. Each measurement was performed in duplicates (the average of each duplicate is shown, with differences between measurements <10%).
FIG. 5B. Summary of the effect of pro-heparanase on Factor Xa activity in the presence of heparin treated plasma, and the 12 LMWH-treated patient derived plasma samples (average±S.D.). Abbreviations: act. (activity), pat. (patient), pla. (plasma) cont. (control).
In order to assess possible clinical effects of heparanase pro-enzyme as an anti-dot to LMWH, heparanase pro-enzyme effect on Factor Xa activity ex vivo, was next tested in plasma derived from patients treated with LMWH, which were incubated with 10 •g/ml heparanase proenzyme. […] Thus, heparanase pro-enzyme reduced FXa inhibitory effects of LMWH in individual patient plasma samples, even at high levels of LMWH. Overall, the level of FXa inhibitory activity of LMWH in treated patients was reduced approximately by 50% (FIG. 5B).

[13] = target: T5, Protein C (Homo sapiens, UniProt P04070); test: Protein C activity (Berichrom Protein C kit); format: biochemical; settings: Heparanase 10 μg/ml; normal range 75-151%
T5 construct: from tissue; host or cells: normal plasma
Description: as §1

T3 sequence (P00743 234-492 limits assumed): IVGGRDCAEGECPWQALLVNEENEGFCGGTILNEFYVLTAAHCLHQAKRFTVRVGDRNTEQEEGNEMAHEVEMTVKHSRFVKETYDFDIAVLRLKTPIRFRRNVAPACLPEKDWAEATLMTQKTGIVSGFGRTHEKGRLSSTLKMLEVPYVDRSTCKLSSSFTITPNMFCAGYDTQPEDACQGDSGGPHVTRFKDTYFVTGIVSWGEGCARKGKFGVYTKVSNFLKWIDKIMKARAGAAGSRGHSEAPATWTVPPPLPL
T3 sequence (P00743 41-180 limits assumed): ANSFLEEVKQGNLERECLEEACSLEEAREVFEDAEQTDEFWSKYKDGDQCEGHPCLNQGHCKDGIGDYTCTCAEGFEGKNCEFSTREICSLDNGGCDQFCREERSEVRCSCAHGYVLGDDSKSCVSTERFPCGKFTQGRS
T4 sequence (P01008 33-464): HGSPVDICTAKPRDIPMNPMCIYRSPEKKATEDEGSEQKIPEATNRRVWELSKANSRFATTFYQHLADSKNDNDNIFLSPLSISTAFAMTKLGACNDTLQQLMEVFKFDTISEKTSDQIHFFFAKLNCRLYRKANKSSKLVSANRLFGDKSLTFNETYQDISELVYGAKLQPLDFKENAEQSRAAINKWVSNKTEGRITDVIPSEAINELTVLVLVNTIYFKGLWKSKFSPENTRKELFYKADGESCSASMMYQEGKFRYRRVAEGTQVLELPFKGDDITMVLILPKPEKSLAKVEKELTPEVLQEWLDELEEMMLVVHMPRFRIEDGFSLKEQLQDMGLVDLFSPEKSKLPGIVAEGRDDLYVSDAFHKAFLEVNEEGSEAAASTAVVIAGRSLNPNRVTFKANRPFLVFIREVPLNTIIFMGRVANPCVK
T5 sequence (P04070 19-461 limits assumed): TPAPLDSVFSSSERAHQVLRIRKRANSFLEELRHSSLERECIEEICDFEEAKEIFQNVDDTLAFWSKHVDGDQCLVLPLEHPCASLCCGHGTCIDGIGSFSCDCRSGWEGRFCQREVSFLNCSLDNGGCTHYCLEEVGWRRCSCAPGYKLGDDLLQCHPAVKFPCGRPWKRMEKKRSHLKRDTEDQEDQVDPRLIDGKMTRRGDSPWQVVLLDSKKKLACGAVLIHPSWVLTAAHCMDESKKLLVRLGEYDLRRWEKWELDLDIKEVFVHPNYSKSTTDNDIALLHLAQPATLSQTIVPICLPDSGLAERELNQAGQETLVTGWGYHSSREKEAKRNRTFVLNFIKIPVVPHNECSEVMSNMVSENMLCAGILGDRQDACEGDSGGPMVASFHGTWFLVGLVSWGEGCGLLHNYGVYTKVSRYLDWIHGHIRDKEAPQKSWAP

For “Enoxaparin [low molecular weight heparin, reference compound]”, the “Effect of heparinoid on Factor Xa activity” value ([1]; FIG. 4) was “reduces significantly”.

For “Lys158-Asp171 heparin-binding peptide: fourteen amino acid peptide of residues Lys158-Asp171 of human heparanase, heparin-binding domain, SEQ ID NO: 1 (KKFKNSTYSRSSVD; listed as Homo sapiens)”, the “Reversal of Factor Xa inhibitory effect of LMWH” value ([1]; peptide 1 mg/ml, FIG. 7) was “completely reverse”, the “Reversal of Factor Xa inhibitory effect of UFH” value ([1]; peptide 1 mg/ml, FIG. 7) was “completely reverse” and the “Reversal of Factor Xa inhibitory effect of LMWH” value ([1]; peptide 1 mg/ml, FIG. 7, listed as Lys158-Asp171 heparin binding (HB) peptide) was “abolished”. The “Reversal of Factor Xa inhibitory effect of heparin” value [1] was “completely reverse”, the “Reversal of Factor Xa inhibitory effect of heparin” value ([1]; listed as Lys158-Asp171 heparin binding (HB) peptide) was “abolished the FXa inhibitory effects of heparin” and the “Inhibition of heparanase enzymatic activity” value [2] was “inhibited heparanase enzymatic activity in a dose-responsive manner”.

With heparin [reference compound] the “Inhibition of clot formation in aPTT assay” value ([3]; 1 u/ml heparin, normal plasma, FIG. 2) was “complete coagulation inhibition”, the “Inhibition of clot formation in thrombin time assay” value ([4]; 0.5 u/ml heparin) was “complete coagulation inhibition” and the “Effect on PT response” value [5] was “neither heparin nor heparanase pro-enzyme affected”.

B1: Heparanase pro-enzyme: latent 65 kDa human heparanase protein with Myc and His tags, purified from conditioned medium of CHO cells (protein, UniProt Q9Y251 36-543, looked up)
pro-form: QDVVDLDFFTQEPLHLVSPSFLSVTIDANLATDPRFLILLGSPKLRTLARGLSPAYLRFGGTKTDFLIFDPKKESTFEERSYWQSQVNQDICKYGSIPPDVEEKLRLEWPYQEQLLLREHYQKKFKNSTYSRSSVDVLYTFANCSGLDLIFGLNALLRTADLQWNSSNAQLLLDYCSSKGYNISWELGNEPNSFLKKADIFINGSQLGEDFIQLHKLLRKSTFKNAKLYGPDVGQPRRKTAKMLKSFLKAGGEVIDSVTWHHYYLNGRTATKEDFLNPDVLDIFISSVQKVFQVVESTRPGKKVWLGETSSAYGGGAPLLSDTFAAGFMWLDKLGLSARMGIEVVMRQVFFGAGNYHLVDENFDPLPDYWLSLLFKKLVGTKVLMASVQGSKRRKLRVYLHCTNTDNPRYKEGDLTLYAINLHNVTKYLRLPYPFSNKQVDKYLLRPLGPHGLLSKSVQLNGLTLKMVDDQTLPPLMEKPLRPGSSLGLPAFSYSFFVIRNAKVAACI
modifications: pro-form Myc and His tags
notes: latent 65 kDa human heparanase protein with Myc and His tags, purified from conditioned medium of CHO cells
In the case of B1, the “Thrombin time (TT)” value [6] is reported as 17.3 s, the “Protein S-activity” value [7] is reported as 105% and the “Pro-coagulant effects at low concentration” value ([3]; heparanase concentrations of less then 5 μg/ml, not shown, assay not specified) is reported as “no pro-coagulant effects”. The “Reversal of heparin anti-coagulant effects on the aPTT response” value ([3]; normal plasma, neutral pH, FIG. 2) was “significantly reversed”, the “Reversal of heparin anti-coagulant effects on thrombin time” value [4] was “significantly prevented; also recorded: significantly reversed” and the “Prothrombin time (PT)” value ([5]; Heparanase 10 μg/ml, normal range 10.03-12.43 sec, single representative experiment) was 10.6 s. For the same molecule, the “Effect on PT response” value [5] was “neither heparin nor heparanase pro-enzyme affected”, the “Activated partial pro-thrombin time (aPTT)” value [8] was 29.4 s and the “Factor Xa-activity” value [9] was 102%. The “Factor Xa-activity” value ([9]; listed as heparanase proenzyme) was “had no effect”, the “Antithrombin III” value [10] was 103% and the Platelet aggregation [11] was “No effects of heparanase”. The “Reduction of FXa inhibitory activity of LMWH in treated patients” value ([12]; 10 •g/ml heparanase proenzyme, overall of 12 patients, FIG. 5B) was about 50%, the “Factor Xa activity in LMWH-treated patient plasma” value [12] was “significant elevation” and the “Factor Xa activity in LMWH-treated patient plasma” value ([12]; listed as heparanase pro-enzyme) was “elevated significantly”. The “Reversal of heparin anti-Xa activity” value ([1]; FIG. 4) was “restoring Xa activity to normal levels”, the “Reversal of heparin anti-Xa activity” value ([1]; FIG. 4, listed as heparanase proenzyme) was “restoring FXa activity to the normal level” and the “Protein C-activity” value [13] was 111%.
